We go through two substances from paper PMC10593751.

The target in the assay is human IgG1 (human). The assay is described as follows: ELISA; immobilized human IgG (hIgG1 or hIgG2) used to pull down CD64; n = 3.

Take “CD64 engineered at the N-terminus with the CKAAKNK (CK) tissue homing peptide (receptor)”: the Kd (commonly the constant that tells how readily two partners part at equilibrium) came out at 0.0536 nM.

Take “wild-type CD64 (Fc-gamma receptor 1) (from UniProt P12314 16-374)”: the Kd was determined as 0.0589 nM.
